Ends that are not written are not given here. * marks the point of attachment. Biotin = O=C1N[C@H]2[C@H](CS[C@H]2CCCCC(=O)*)N1
T1: N-terminal biotinylated β-amyloid (24-34) peptide
T1 peptide: Biotin-VGSNKGAIIGL

T2: ovalbumin protein (UniProt P01012 2-386)
T2 sequence (looked up): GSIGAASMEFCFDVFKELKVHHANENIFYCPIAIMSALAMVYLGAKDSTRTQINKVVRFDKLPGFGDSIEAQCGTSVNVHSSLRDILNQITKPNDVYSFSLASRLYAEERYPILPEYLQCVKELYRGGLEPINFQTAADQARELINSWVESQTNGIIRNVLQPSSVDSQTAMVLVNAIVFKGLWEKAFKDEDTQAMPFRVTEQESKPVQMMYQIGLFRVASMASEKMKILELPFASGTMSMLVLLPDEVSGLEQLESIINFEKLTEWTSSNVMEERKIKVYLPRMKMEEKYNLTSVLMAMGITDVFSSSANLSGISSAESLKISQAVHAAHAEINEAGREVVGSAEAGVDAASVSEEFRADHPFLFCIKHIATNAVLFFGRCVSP

T3: N-terminal coupled CGGGEDVGSNKGAIIGLMVGG (22-38) ovalbumin conjugate (coupled by the N-terminus to ovalbumin)
T3 peptide: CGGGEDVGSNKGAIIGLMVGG


Legend:
[1] = target: T4, human β-amyloid 1-40 (human, UniProt P05067 672-711); test: SPR Biacore T100; antibody captured on anti-human IgG, Aβ 1-40 at 1-256 nM; 1:1 model
T4 construct: domain: β-amyloid (1-40); Used in solution over captured antibody (Biacore) or coated on ELISA plates; also called human Aβ peptide (1-40); Aβ peptide (1-40)
Method: (§1) Anti-human IgG (Biacore BR-1008-39) was coupled to a CM5 biosensor chip by primary amine coupling. The anti-beta amyloid antibodies were captured on this surface. Beta amyloid (1-40) was then passed over at 256, 64, 16, 4 and 1 nM, with a 0 nM (ie buffer alone passed over the captured antibody surface) used for double referencing. […] The data was analysed using the 1:1 model inherent to the T100. The run was carried out at 25° C. and 37° C. using HBS-EP as the running buffer.

[2] = target: T4, human β-amyloid 1-40; test: SPR Biacore T100 at 37 C; antibody captured on anti-human IgG, Aβ 1-40 at 1-256 nM
Method: as §1
From this panel some constructs were also assessed for binding kinetics at physiological temperature.

[3] = target: T1, N-terminal biotinylated β-amyloid …; test: FMAT bead immunoassay, culture supernatant
Excerpt: (§2) Each of the expressed antibodies contained in culture supernatant was then screened in an FMAT (Fluorescent Microvolume Assay Technology) homogenous immunoassay. 29 positive antibodies were identified from this screening cascade that were negative for ovalbumin protein passively absorbed to polystyrene beads but positive for: [0158] (i) N-terminal coupled […] (22-38) (SEQ ID No:73) ovalbumin conjugate bound to polystyrene beads, [0159] (ii) N-terminal biotinylated β-amyloid(1-40) peptide bound to streptavidin coated polystyrene beads, [0160] (iii) C-terminal biotinylated β-amyloid(1-40) peptide bound to streptavidin coated polystyrene beads and [0161] (iv) N-terminal biotinylated β-amyloid (24-34) peptide, residues 24-34 of β-amyloid being […] (SEQ ID No:8), bound to streptavidin coated polystyrene beads.

[4] = target: T2, ovalbumin protein; test: FMAT bead immunoassay, culture supernatant
Excerpt: as §2

[5] = target: T3, N-terminal coupled …; test: FMAT bead immunoassay, culture supernatant
Excerpt: as §2

[6] = target: T4, human β-amyloid 1-40; test: SPR Biacore 3000; mAb captured on anti-mouse IgG, Aβ 1-40 at 4-500 nM
Method: Purified mouse antibody preparations were captured on a polyclonal anti-mouse IgG antibody chip surface. Freshly prepared human β-amyloid 1-40 was diluted down in HBS-EP buffer and passed over the captured antibody surface at concentrations ranging from 4-500 nM for 5 minutes. […] Regeneration was achieved via a pulse of 100 mM H₃PO₄. […] All runs were double referenced against a blank surface and blank buffer injections.

T4 sequence (P05067 672-711 limits assumed): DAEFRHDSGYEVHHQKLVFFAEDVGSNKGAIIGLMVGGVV

Binder | Kd [1] [nM] | Kd [2] [nM] | binding result [3] | binding result [4] | binding result [5] | Kd [6] [nM] | koff [6] [s⁻¹] | kon [6] [M⁻¹ s⁻¹]
humanised de-immunised construct H48L19 (antibody, human IgG1, V domains shown) VH: QVQLVQSGAEVKEPGASVKVSCKGSGFNIHVYYVHWLRQLPEKGLEWIGRIDPENGETIYTPKFQDKATLTVDTSTDTAYMELSSLRSEDTAVYYCVSSGYWGQGTLVTVSS VL: DIVMTQSPLSNPVTPGEPASISCRSSKSLLHRNGKTYLYWYLQKPGQSPQLLIYQMDHLASGVPDRFSSSGSGTDFTLKISRVEAEDVGVYYCAQNLELWTFGQGTKVEIK | 3.15 | – | – | – | – | – | – | –
humanised de-immunised construct H48L20 (antibody, human IgG1, V domains shown) VH: QVQLVQSGAEVKEPGASVKVSCKGSGFNIHVYYVHWLRQLPEKGLEWIGRIDPENGETIYTPKFQDKATLTVDTSTDTAYMELSSLRSEDTAVYYCVSSGYWGQGTLVTVSS VL: DIVMTQSPLSNPVTPGEPASISCRSSKSLLHRNGITYLYWYLQKPGQSPQLLIYQMDHLASGVPDRFSSSGSGTDFTLKISRVEAEDVGVYYCAQNLELWTFGQGTKVEIK | 2.02 | 3.54 | – | – | – | – | – | –
humanised de-immunised construct H48L21 (antibody, human IgG1, V domains shown) VH: QVQLVQSGAEVKEPGASVKVSCKGSGFNIHVYYVHWLRQLPEKGLEWIGRIDPENGETIYTPKFQDKATLTVDTSTDTAYMELSSLRSEDTAVYYCVSSGYWGQGTLVTVSS VL: DIVMTQSPLSNPVTPGEPASISCRSSKSLLHRNGKTYLYWYLQKPGQSPQLLIYQMDNLASGVPDRFSSSGSGTDFTLKISRVEAEDVGVYYCAQNLELWTFGQGTKVEIK | 2.01 | 2.69 | – | – | – | – | – | –
2C1 mouse monoclonal antibody (antibody, V domains shown, Mouse hybridoma antibody) VH: EVQLQQSGAELVKPGASVKLSCTGSGFNIKVYYVHWLKQLTEQGLEWIGRIDPENGETIYAPKFQDKATLTVDTSSNTAYLQLSSLTSEDTAVYYCVSSGYWGQGTTLTVSS VL: DIVMTQSAFSNPVTLGTSASISCRSSKSLLHRNGITYLYWYLQKPGQSPQLLIYQMSNLASGVPDRFTSSGSGTDFTLKISRVEAEDVGVYYCAQNLELWTFGGGTKLEIK | – | – | binds | no binding | binds | 1.95 | 0.000129 | 66300
2E11 mouse monoclonal antibody (antibody, V domains shown, Mouse hybridoma antibody) VH: EVQLQQSGAEVVKPGASVKLSCTASGFNIKVYYIHWLKQLTEQGLEWIGRIDPENGETKYVPKFQGKATLTVDTSSNTAYLHLSSLTSEDTGVYYCVTSGYWGQGTTLTVSS VL: DIVMTQAAFSNPVALGTSASISCRSSKSLLHSNGITYLYWYLQKPGQSPQLLIYQMSNLASGVPDRFSSSGSGTDFTLRISRVEAEDVGVYYCAQNLELWTFGGGTKLEIK | – | – | binds | no binding | binds | 2.01 | 0.00017 | 84500
5C9 mouse monoclonal antibody (antibody, V domains shown, Mouse hybridoma antibody) VH: EVQLQQSGAEFVRPGASVKLSCTASGFNIKTYYIHWLKQRTDQGLEWIGRIDPEDGETKFGPKFRGKATLTADTSSNTASLQLSSLTSEDTGVYYCVTSGYWGQGTTLSVSS VL: DIVMTQAAFSNPVTLGTSASISCRSSKSLLHSNGITYLYWYLQKPGQSPQLLIYQMSNLASGVPDRFSSSGSGTDFTLRISRVEAEDVGVYYCAQNLELWTFGGGTKLEIK | – | – | binds | no binding | binds | 2.69 | 0.000164 | 61100
16D4 mouse monoclonal antibody (antibody, V domains shown, Mouse hybridoma antibody) VH: EVQLQQSGAELVKPGASVKLSCTASGFNIKDYYMHWLKQLTEQGLEWIGRIDPENGETQYAPKFQGKASLTADTSSNTAYLHLSSLTSEDTAVYYCVSSGYWGQGTTLTVSS VL: DIVMTQAAFSNPVTLGTSASISCRSSKSLLHSNGITYLYWYLQKPGQSPQLLIYQMSNLASGVPDRFSSSGSGTDFTLRISRVEAEDVGVYYCAQNLELWTFGGGTKLEIK | – | – | binds | no binding | binds | 7.62 | 0.000618 | 81200
4D4 mouse monoclonal antibody (antibody, V domains shown, Mouse hybridoma antibody) VH: EVQLQQSGAELVEPGASVKLSCTGSGFNIKVYYVHWLKQLTEQGLEWIGRIDPENGETLYTPKFQGKATLTVDTSSNTAYLQLNSLTSEDTAVYYCVSSGYWGQGTSLTVSS VL: DIVMTQSAFSNPVTLGTSASISCRSSKSLLHRNGITYLYWYLQKPGQSPQLLIYQMSNLASGVPDRFTSSGSGTDFTLKISRVEAEDVGVYYCAQNLELWTFGGGTKLEIK | – | – | binds | no binding | binds | 1.13 | 8.27e-05 | 73200
14B3 mouse monoclonal antibody (antibody, V domains shown, Mouse hybridoma antibody) VH: EVQLQQSGAELVEPGASVKLSCTGSGFNIKVYYVHWLKQLTEQGLEWIGRIDPENGETLYTPKFQGKATFTVDTSSNTAYLQLSSLTSEDTAVYYCVSSGYWGQGTTLTVSS VL: DIVMTQSAFSNPVTLGTSASISCRSSKSLLHRNGITYLYWYLQKPGQSPQLLIYQMSNLASGVPDRFTSSGSGTDFTLKISRVEAEDVGVYYCAQNLELWTFGGGTKLEIK | – | – | binds | no binding | binds | 0.95 | 7.11e-05 | 74800

Next, values leading:

Kd [1] [nM] | Kd [2] [nM] | binding result [3] | binding result [4] | binding result [5] | Kd [6] [nM] | koff [6] [s⁻¹] | kon [6] [M⁻¹ s⁻¹] | Binder
2.23 | – | – | – | – | – | – | – | humanised de-immunised construct H49L20 (antibody, human IgG1, V domains shown) VH: QVQLVQSGAEVKEPGASVKVSCKGSGFNIKTYYVHWLRQLPEKGLEWIGRIDPENGETIYTPKFQDKATLTVDTSTDTAYMELSSLRSEDTAVYYCVSSGYWGQGTLVTVSS VL: DIVMTQSPLSNPVTPGEPASISCRSSKSLLHRNGITYLYWYLQKPGQSPQLLIYQMDHLASGVPDRFSSSGSGTDFTLKISRVEAEDVGVYYCAQNLELWTFGQGTKVEIK
2.5 | 3.5 | – | – | – | – | – | – | humanised de-immunised construct H50L20 (antibody, human IgG1, V domains shown) VH: QVQLVQSGAEVKEPGASVKVSCTGSGFNIHVYYVHWLRQLPEKGLEWIGRIDPENGETIYTPKFQDKATLTVDTSTDTAYMELSSLRSEDTAVYYCVSSGYWGQGTLVTVSS VL: DIVMTQSPLSNPVTPGEPASISCRSSKSLLHRNGITYLYWYLQKPGQSPQLLIYQMDHLASGVPDRFSSSGSGTDFTLKISRVEAEDVGVYYCAQNLELWTFGQGTKVEIK
2.76 | – | – | – | – | – | – | – | humanised de-immunised construct H50L19 (antibody, human IgG1, V domains shown) VH: QVQLVQSGAEVKEPGASVKVSCTGSGFNIHVYYVHWLRQLPEKGLEWIGRIDPENGETIYTPKFQDKATLTVDTSTDTAYMELSSLRSEDTAVYYCVSSGYWGQGTLVTVSS VL: DIVMTQSPLSNPVTPGEPASISCRSSKSLLHRNGKTYLYWYLQKPGQSPQLLIYQMDHLASGVPDRFSSSGSGTDFTLKISRVEAEDVGVYYCAQNLELWTFGQGTKVEIK
2.65 | – | – | – | – | – | – | – | humanised de-immunised construct H51L19 (antibody, human IgG1, V domains shown) VH: QVQLVQSGAEVKEPGASVKVSCKGSGFNIHTYYVHWLRQLPEKGLEWIGRIDPENGETIYTPKFQDKATLTVDTSTDTAYMELSSLRSEDTAVYYCVSSGYWGQGTLVTVSS VL: DIVMTQSPLSNPVTPGEPASISCRSSKSLLHRNGKTYLYWYLQKPGQSPQLLIYQMDHLASGVPDRFSSSGSGTDFTLKISRVEAEDVGVYYCAQNLELWTFGQGTKVEIK
3.09 | – | – | – | – | – | – | – | humanised de-immunised construct H49L19 (antibody, human IgG1, V domains shown) VH: QVQLVQSGAEVKEPGASVKVSCKGSGFNIKTYYVHWLRQLPEKGLEWIGRIDPENGETIYTPKFQDKATLTVDTSTDTAYMELSSLRSEDTAVYYCVSSGYWGQGTLVTVSS VL: DIVMTQSPLSNPVTPGEPASISCRSSKSLLHRNGKTYLYWYLQKPGQSPQLLIYQMDHLASGVPDRFSSSGSGTDFTLKISRVEAEDVGVYYCAQNLELWTFGQGTKVEIK
2.58 | – | – | – | – | – | – | – | humanised de-immunised construct H49L21 (antibody, human IgG1, V domains shown) VH: QVQLVQSGAEVKEPGASVKVSCKGSGFNIKTYYVHWLRQLPEKGLEWIGRIDPENGETIYTPKFQDKATLTVDTSTDTAYMELSSLRSEDTAVYYCVSSGYWGQGTLVTVSS VL: DIVMTQSPLSNPVTPGEPASISCRSSKSLLHRNGKTYLYWYLQKPGQSPQLLIYQMDNLASGVPDRFSSSGSGTDFTLKISRVEAEDVGVYYCAQNLELWTFGQGTKVEIK

From patent publication US20090162358A1 (GlaxoSmithKline, published 2009)
